According to patent publication US20220040234A1 (JUVENTAS CELL THERAPY, published 2022):

Target: T1, CD19 on the CD19-positive human leukemia cell line Nalm-6 (human, UniProt P15391 20-556)
T1 sequence (looked up): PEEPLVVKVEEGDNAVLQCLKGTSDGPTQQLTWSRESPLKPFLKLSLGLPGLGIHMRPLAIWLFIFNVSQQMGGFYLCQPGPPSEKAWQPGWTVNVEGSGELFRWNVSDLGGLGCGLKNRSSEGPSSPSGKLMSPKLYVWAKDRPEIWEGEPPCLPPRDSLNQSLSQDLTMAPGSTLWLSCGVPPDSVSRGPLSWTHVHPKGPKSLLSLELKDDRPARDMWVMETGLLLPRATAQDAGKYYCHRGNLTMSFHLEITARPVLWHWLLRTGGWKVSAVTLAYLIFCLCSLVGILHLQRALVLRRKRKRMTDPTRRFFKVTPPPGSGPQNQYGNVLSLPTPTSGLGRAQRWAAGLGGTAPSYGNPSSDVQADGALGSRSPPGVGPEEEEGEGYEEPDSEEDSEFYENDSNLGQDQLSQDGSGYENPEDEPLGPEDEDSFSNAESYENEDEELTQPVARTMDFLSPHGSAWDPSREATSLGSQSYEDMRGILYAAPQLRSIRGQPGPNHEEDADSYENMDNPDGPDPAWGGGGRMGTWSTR
Assay: cell-based or functional assay

IL-6 secreted by CNCT19 cells after 24 h co-culture with Nalm-6 target cells, effector/target ratio 2:1: 32.2 pg/mL | INF-γ secreted by CNCT19 cells after 24 h co-culture with Nalm-6 target cells, effector/target ratio 2:1: 6190 pg/mL | residual rate of target cells (Nalm-6) after 24 h co-culture with CNCT19 cells, effector/target ratio 1:2, flow cytometry: 2.8% | residual rate of target cells (Nalm-6) after 24 h co-culture with CNCT19 cells, effector/target ratio 2:1, flow cytometry: 1.1%
B1: CD19-targeted chimeric antigen receptor (CAR) of SEQ ID NO. 1, expressed on the surface of CNCT19 cells (other)
chain: GSDIVLTQSPKFMSTSVGDRVSVTCKASQNVGTNVAWYQQKPGQSPKPLIYSATYRNSGVPDRFTGSGSGTDFTLTITNVQSKDLADYFCQQYNRYPYTSGGGTKLEIKRGGGGSGGGGSGGGGSQVQLQQSGAELVRPGSSVKISCKASGYAFSSYWMNWVKQRPGQGLEWIGQIYPGDGDTNYNGKFKGQATLTADKSSSTAYMQLSGLTSEDSAVYFCARKTISSVVDFYFDYWGQGTTLTVSSEFTTTPAPRPPTPAPTIASQPLSLRPEACRPAAGGAVHTRGLDFACDIYIWAPLAGTCGVLLLSLVITLYCKRGRKKLLYIFKQPFMRPVQTTQEEDGCSCRFPEEEEGGCELRVKFSRSADAPAYQQGQNQLYNELNLGRREEYDVLDKRRGRDPEMGGKPRRKNPQEGLYNELQKDKMAEAYSEIGMKGERRRGKGHDGLYQGLSTATKDTYDALHMQALPPR
